Laboratory results published in paper PMC9583166 (Frontiers in Cell and Developmental Biology, 2022).
Changes are numbered by the printed parent chain. Numbers in names are those of the source.

Columns and labels:
Test in all cases: fluorescence polarisation; increasing amounts of SIN1 protein titrated to 1 µM mGppNHp-bound GTPase; 21°C; 30 mM Tris/HCl pH 7.5, 150 mM NaCl, 5 mM MgCl2, 3 mM dithiothreitol; quadratic ligand binding equation
Details in all cases: both partners purified
[1] = target: T1, RHEB ( (the printed accession is a …, UniProt Q15382 1-184))
T1 construct: RHEB, full length gene; Loaded with mant-GppNHp for fluorescence polarisation

[2] = target: T2, RAP2A ( (the printed accession is a …, UniProt P10114 1-183))
T2 construct: RAP2A, full length gene; Loaded with mant-GppNHp for fluorescence polarisation
T2 sequence (looked up): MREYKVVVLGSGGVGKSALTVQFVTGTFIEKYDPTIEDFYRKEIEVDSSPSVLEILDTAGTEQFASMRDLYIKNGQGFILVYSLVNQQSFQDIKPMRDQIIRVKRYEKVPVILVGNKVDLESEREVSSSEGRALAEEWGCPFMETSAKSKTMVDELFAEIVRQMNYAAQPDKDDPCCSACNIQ

[3] = target: T3, RALA ( (the printed accession is a …, UniProt P11233 1-206))
T3 construct: RALA, full length gene; Loaded with mant-GppNHp for fluorescence polarisation
T3 sequence (looked up): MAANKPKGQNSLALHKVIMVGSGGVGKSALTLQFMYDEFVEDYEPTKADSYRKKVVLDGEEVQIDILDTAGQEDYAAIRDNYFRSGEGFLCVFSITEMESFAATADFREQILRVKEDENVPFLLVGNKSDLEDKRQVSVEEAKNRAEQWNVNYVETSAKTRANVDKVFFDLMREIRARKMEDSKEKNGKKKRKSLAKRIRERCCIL

[4] = target: T4, KRAS4A ( (the printed accession is a …, UniProt P01116-1 1-189))
T4 construct: KRAS isoform 4A, full length gene; Loaded with mant-GppNHp for fluorescence polarisation; A farnesylated KRAS4A from insect cells was used only in liposome flotation

[5] = target: T5, RIT1 ( (the printed accession is a …, UniProt Q92963 1-219))
T5 construct: RIT1, full length gene; Loaded with mant-GppNHp for fluorescence polarisation

[6] = target: T6, ERAS ( (the printed accession is a …, UniProt Q7Z444 1-233))
T6 construct: ERAS, full length gene; Loaded with mant-GppNHp for fluorescence polarisation
T6 sequence (looked up): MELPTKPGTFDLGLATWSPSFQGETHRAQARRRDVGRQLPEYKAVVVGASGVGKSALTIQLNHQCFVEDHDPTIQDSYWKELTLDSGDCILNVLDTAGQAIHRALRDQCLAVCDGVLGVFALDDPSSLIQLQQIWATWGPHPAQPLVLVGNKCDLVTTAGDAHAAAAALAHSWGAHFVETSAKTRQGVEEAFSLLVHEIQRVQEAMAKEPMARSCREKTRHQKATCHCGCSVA

[7] = target: T7, TC21 ( (the printed accession is a …, UniProt P62070 1-204))
T7 construct: RRAS2 (TC21), full length gene; Loaded with mant-GppNHp for fluorescence polarisation; also called RRAS2
T7 sequence (looked up): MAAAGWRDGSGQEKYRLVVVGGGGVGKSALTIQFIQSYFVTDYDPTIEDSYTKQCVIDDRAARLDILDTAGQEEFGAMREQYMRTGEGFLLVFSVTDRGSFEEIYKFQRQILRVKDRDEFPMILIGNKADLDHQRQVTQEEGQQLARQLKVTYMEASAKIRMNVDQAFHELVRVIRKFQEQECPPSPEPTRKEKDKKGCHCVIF

[8] = target: T8, RRAS ( (the printed accession is a …, UniProt P10301 1-218))
T8 construct: RRAS (RRAS1), full length gene; Loaded with mant-GppNHp for fluorescence polarisation; also called RRAS1
T8 sequence (looked up): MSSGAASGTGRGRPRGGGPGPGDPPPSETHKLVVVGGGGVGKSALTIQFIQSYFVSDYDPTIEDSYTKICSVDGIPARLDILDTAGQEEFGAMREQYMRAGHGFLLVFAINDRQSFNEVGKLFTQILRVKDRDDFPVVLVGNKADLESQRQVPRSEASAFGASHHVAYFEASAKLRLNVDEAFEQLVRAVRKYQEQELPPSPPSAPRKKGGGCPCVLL

[9] = target: T9, NRAS ( (the printed accession is a …, UniProt P01111 1-189))
T9 construct: NRAS, full length gene; Loaded with mant-GppNHp for fluorescence polarisation

[10] = target: T10, KRAS4B ( (the printed accession is a …, UniProt P01116-2 1-188))
T10 construct: KRAS isoform 4B, full length gene; Loaded with mant-GppNHp for fluorescence polarisation

[11] = target: T11, RHOA ( (the printed accession is a …, UniProt P61586 1-193))
T11 construct: RHOA, full length gene; Loaded with mant-GppNHp for fluorescence polarisation

[12] = target: T4, KRAS4A; remark: listed apart in the source
[13] = target: T5, RIT1; remark: listed apart in the source
[14] = target: T4, KRAS4A; remark: listed apart in the source
[15] = target: T12, HRAS ( (the printed accession is a …, UniProt P01112 1-189))
T12 construct: HRAS, full length gene; Loaded with mant-GppNHp (or mant-GDP) for fluorescence polarisation; also called HRAS•mGppNHp; HRAS•mGDP

[16] = target: T9, NRAS; remark: listed apart in the source

T5 sequence (Q92963 whole entry): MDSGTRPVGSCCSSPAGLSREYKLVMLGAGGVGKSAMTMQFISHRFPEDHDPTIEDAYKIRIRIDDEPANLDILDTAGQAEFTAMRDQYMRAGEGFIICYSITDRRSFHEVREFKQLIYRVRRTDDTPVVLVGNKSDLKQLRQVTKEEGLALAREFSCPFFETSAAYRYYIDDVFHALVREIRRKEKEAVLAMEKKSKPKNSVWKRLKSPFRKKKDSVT
T12 sequence (P01112 whole entry): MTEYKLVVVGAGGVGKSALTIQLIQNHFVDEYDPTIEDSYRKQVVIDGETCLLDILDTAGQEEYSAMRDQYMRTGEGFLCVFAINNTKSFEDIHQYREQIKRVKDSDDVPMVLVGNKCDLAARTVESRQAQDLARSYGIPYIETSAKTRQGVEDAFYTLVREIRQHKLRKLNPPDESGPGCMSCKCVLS
T9 sequence (P01111 whole entry): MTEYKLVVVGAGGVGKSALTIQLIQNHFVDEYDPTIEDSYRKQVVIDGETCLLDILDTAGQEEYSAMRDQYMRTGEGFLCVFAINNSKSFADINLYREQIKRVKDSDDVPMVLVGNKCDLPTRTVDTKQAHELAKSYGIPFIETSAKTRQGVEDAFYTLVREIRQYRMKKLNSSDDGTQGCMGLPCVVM
T11 sequence (P61586 whole entry): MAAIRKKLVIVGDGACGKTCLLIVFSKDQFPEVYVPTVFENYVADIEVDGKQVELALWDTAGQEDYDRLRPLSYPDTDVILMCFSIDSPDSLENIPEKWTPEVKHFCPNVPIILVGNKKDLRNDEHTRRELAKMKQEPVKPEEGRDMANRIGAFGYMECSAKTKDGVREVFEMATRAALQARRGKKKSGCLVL
T1 sequence (Q15382 whole entry): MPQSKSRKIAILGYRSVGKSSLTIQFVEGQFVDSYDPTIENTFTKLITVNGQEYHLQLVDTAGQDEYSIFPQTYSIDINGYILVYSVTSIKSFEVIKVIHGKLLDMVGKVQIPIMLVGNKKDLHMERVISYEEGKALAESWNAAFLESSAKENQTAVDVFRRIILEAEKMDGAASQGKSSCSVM

B1: SIN1-RBD (domain or fragment, UniProt Q9BPZ7 266-373, looked up)
chain: EKYSSPGLTSKESLFVRINAAHGFSLIQVDNTKVTMKEILLKAVKRRKGSQKVSGPQYRLEKQSEPNVAVDLDSTLESQSAWEFCLVRENSSRADGVFEEDSQIDIAT
notes: numbers count on isoform 1 (full length); As used in fluorescence polarisation; Limits: 266-373 in the methods, 279-353 in the results; also called SIN1-RBD^WT
[1]
  Kd: 358 µM
[2]
  Kd: 483 µM
[3]
  Kd: 331 µM
[4]
  Kd: 34 µM
[5]
  Kd: 123 µM
[6]
  Kd: 171 µM
[7]
  Kd: 878 µM
[8]
  Kd: 123 µM
[9]
  Kd: 31 µM
[10]
  Kd: 33 µM
[11]
  Kd: 535 µM
[12]
  Kd: 35 µM
[13]
  Kd: 112 µM

B2: SIN1-RBD^FSL289-291REE (domain or fragment, UniProt Q9BPZ7 266-373, looked up)
chain: B1 chain with F24R, S25E, L26E
notes: numbers count on isoform 1 (full length); also called SIN-RBD^FSL289-291REE; SIN1^FSL289-291REE
[14]
  Kd: 654 µM

B3: SIN1-RBD^K307D (domain or fragment, UniProt Q9BPZ7 266-373, looked up)
chain: B1 chain with K42D
notes: numbers count on isoform 1 (full length); also called SIN-RBD^K307D; SIN1^K307D
[14]
  Kd: 256 µM
[15]
  Kd: 324 µM
[16]
  Kd: 166 µM

B4: SIN1-RBD^RR311-312EE (domain or fragment, UniProt Q9BPZ7 266-373, looked up)
chain: B1 chain with R46E, R47E
notes: numbers count on isoform 1 (full length); also called SIN-RBD^RR311,312EE; SIN1^RR311-312EE
[14]
  Kd: 952 µM
[15]
  Kd: 461 µM
